Among the data in patent publication US20240374644A1 are percentage of peripheral blood mononuclear cells positive (anti-GST) values, retold here.

This assay concerns the target CD8 on peripheral blood mononuclear cells (human). Nature of the assay: flow cytometry on PBMCs, anti-GST antibody. (In general: In flow cytometry, cells or beads pass a laser one at a time.)

Chain of CD8 on peripheral blood mononuclear cells (human) (P01732 22-235, chain 1 of 2): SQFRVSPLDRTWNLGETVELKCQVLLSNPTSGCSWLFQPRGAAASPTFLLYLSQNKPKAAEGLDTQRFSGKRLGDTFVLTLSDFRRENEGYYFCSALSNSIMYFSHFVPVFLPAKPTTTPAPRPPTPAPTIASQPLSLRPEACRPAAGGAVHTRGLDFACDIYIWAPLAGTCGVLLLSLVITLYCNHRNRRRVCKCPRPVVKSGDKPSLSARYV
Chain of CD8 on peripheral blood mononuclear cells (human) (P10966 22-210, chain 2 of 2, further chain): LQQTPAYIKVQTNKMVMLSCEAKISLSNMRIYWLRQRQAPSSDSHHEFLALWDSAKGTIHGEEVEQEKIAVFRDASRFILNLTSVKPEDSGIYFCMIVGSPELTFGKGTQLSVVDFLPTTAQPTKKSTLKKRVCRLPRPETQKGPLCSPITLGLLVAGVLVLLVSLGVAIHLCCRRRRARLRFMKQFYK

“CD8 BiTE (K8Bi), anti-HERV-K 6H5 scFv linked to anti-CD8 (OKT8) scFv (bispecific antibody)”: the percentage of peripheral blood mononuclear cells positive (anti-GST) fell in the range of 48.8 to 55.2%.
